We go through one molecule from patent publication EP1379283B1 (Palatin Technologies, Inc., dated 2002).

Square brackets hold non-standard residues; d marks the D form. Nle = CCCC[C@H](N)C(=O)O

The target in experiment [1] is T1, MC1-R of B-16 mouse melanoma cells (mouse, UniProt Q01727 1-315).
T1 construct: whole, on cells; Membrane preparation; also called MCR-1
The experiment is described as follows: assay not described for this value.

The next experiment concerns the target T2, hMC4-R (human, UniProt P32245 1-332).
T2 construct: whole, on cells; Membrane preparation; also called MCR-4
The experiment is described as follows: assay not described for this value.

For orientation: Ki means the dissociation constant of the complex between target and ligand, obtained from inhibition or displacement.

T2 sequence (P32245 whole entry): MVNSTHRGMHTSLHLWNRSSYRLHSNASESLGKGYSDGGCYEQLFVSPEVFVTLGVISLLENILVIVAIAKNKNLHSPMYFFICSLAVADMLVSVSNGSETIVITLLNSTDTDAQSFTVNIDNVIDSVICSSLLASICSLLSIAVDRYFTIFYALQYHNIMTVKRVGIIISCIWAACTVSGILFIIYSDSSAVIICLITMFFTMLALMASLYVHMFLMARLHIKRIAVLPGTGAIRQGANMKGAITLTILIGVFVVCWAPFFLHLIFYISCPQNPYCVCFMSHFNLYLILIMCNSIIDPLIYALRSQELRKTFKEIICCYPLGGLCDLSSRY
T1 sequence (Q01727 whole entry): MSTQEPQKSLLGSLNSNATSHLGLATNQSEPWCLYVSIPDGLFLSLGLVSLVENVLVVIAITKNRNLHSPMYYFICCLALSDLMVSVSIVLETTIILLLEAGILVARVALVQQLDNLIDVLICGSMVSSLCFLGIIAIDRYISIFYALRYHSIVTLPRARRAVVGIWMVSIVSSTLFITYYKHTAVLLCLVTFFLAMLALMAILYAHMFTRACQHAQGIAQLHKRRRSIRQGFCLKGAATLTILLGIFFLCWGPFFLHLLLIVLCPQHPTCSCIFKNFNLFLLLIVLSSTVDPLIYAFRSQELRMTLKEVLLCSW

B1: Ac-Nle-Ala-His-D-Phe-Arg-Trp-NH2 (peptide)
peptide: Ac-[Nle]AH[dF]RW-NH2
notes: Linear parent peptide, not complexed to a metal; also called parent melanocortin peptide
With B1, the Ki was found to be 100 nM in experiment [1] and 2000 nM with hMC4-R.
